This note sets out measurements from the nanobody polyreactivity screen of Harvey et al. (2022).

A short description of this data set: yeast display, Sf9 membrane polyspecificity reagent, FACS + sequencing; frameworks hold sequencing errors. In short, it runs like this: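 Nanobodies came from a synthetic yeast display library in Saccharomyces cerevisiae BJ5465, induced with galactose for 36–48 hours and stained for 1 hour at 4 °C with 10% biotinylated, detergent-solubilized Sf9 membrane reagent. Cells were enriched on streptavidin microbeads and then FACS-sorted, with low and high (top ~1%) gates set on anti-HA fluorescence for expression and streptavidin fluorescence for reagent binding. Each polyreactivity label reflects the gate a clone came from. Genes were amplified by colony PCR, sequenced by MiSeq 2 × 250 and filtered by CDR length.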
With “QVQLVESGGGLVQAGGSLRLSCAASGSTFVANGMGWYRQAPGKERELVAVISRNGGTTYYADSVKGRFTISRDNAKNTVYLQMNSLKPEDTAVYYCNAKLPVFHYFWMDYWGQGTQVTVSS”, the “polyreactivity (PSR sort gate)” value is “high polyreactivity”.
To “QVQLVESGGGLVQAGGSLRLSCAASGSTFVANTMGWYRQAPGKERELGAAITSDGGSTSYADSVKGRFSISRDNAKNTVYLQMNSLKPEDTAVYHCAAEYGGSSAKYGYWGQGTQVTVSS” belongs “low polyreactivity”; to “QVQLVESGGGLVQAGGSLRLSCAASGSTFVANVMGWYRQAPGKERELVATINSTSGSTYYADSVKGRFTISRDNAKNTVYLQMNSLKPEDTAVYYCNATHEGFELDYWGQGTQVTVSS”, “low polyreactivity”.
Turning to “QVQLVESGGGLVQAGGSLRLSCAASGSTFVAYAMGWYRQAPGKERELVAAISASGVRTYYADSVKGRFTISRDNAKNTVYLQMNSLKPEDTAVYYCAATVFRKYRYGYWGQGTQVTVSS”, the “polyreactivity (PSR sort gate)” value is on record as “high polyreactivity”.
The result for “QVQLVESGGGLVQAGGSLRLSCAASGSTFVDNAMGWYRQAPGKERELVAAITNSGSTYYADSVKGRFTISRDNAKNTVYLQMNSHKPEDTAVYYCAARSRVYWARSGYWGQGTQVTVSS” reads “low polyreactivity”; that for “QVQLVESGGGLVQAGGSLRLSCAASGSTFVDYDMGWYRQAPGKERELVAAITYSGARTYYADSVKGRFTISRDNAKNTVYLQMNSLKPEDTAVYYCNADQRTASDQLEFDYWGQGTQVTVSS”, “low polyreactivity”.
Regarding “QVQLVESGGGLVQAGGSLRLSCAASGSTFVFYAMGLYRQAPGKERELVADITSGGRTSYADSVKGRFTISRDNAKNTVYLQMNSLKPEDTAVYYCAALTRWYAWYDYWGQGTQVTVSS”, the “polyreactivity (PSR sort gate)” value is given as “high polyreactivity”.
For “QVQLVESGGGLVQAGGSLRLSCAASGSTFVFYAMGWYRQAPGKERELVAINSGGSTYYADSVKGRFTISRDNAKKTVYLQMNSLKPVDTAVYYCAKDRLRVWRFDYWGQGTQVTVSS”, the “polyreactivity (PSR sort gate)” value is “low polyreactivity”.
Take “QVQLVESGGGLVQAGGSLRLSCAASGSTFVFYTMGWYRQAPGKEREFVASISGSGGSTYYADSVKGRFTISRDNAKNTVYLQMNSLKPEVSAVYYCAAGYPYYYWTPYYYWGQGTQVTLSS”: the “polyreactivity (PSR sort gate)” value is “high polyreactivity”.
Take “QVQLVESGGGLVQAGGSLRLSCAASGSTFVGNAMGWYRQAPGKERELVAAITSGGSTNYADSVKGRFTISRDNAKNTVYLQMNSLKPEDTAVYYCAKRVSGSPPTAGSLSDSWGQGTQVTVSS”: the “polyreactivity (PSR sort gate)” value is listed as “high polyreactivity”.
Turning to “QVQLVESGGGLVQAGGSLRLSCAASGSTFVGNVMGWYRQAPGKERELVATISRSGGRTYYADSVKGRFTISRDNAKNTVYLQMNSLKPVDTAVYYCAAGFVYTTASRWGGRTRYDYWGQGTQVTVSS”, the “polyreactivity (PSR sort gate)” value is reported as “high polyreactivity”.
In the case of “QVQLVESGGGLVQAGGSLRLSCAASGSTFVGYAMGWYRQAPGKERELVAAISGGDSTYYADSVKGRFTLSRDNAQNTVYLQKNSLNPEDTALYYCAVGWTFDRRGYGYWGQGTQVTVSS”, the “polyreactivity (PSR sort gate)” value was “low polyreactivity”.
The result for “QVQLVESGGGLVQAGGSLRLSCAASGSTFVGYAMGWYRQAPGKERELVAAITTDGGSTYYADSVKVRFTISRDNAKNTVYLQMNSLKPEDTAVYYCAADHRVYPRDDWDSPDEFGYWGQGTQVTVSS” reads “low polyreactivity”.
For “QVQLVESGGGLVQAGGSLRLSCAASGSTFVGYAMGWYRQAPGKERELVADIDSIGGSTYYADSVKGRFTISRDNAKNTVYLQMNSLKPEDTAVYYCAARRFDTALVLYDYWGQGTQVTVSS”, the “polyreactivity (PSR sort gate)” value is “low polyreactivity”.
The result for “QVQLVESGGGLVQAGGSLRLSCAASGSTFVGYAMGWYRQAPGKERELVAGITASGTNTYYADSVKGRFTISRDNAKNTVYLQMNSLKPEDTAVYYCAAESNRRFEGEYWGQGTQVTVSS” reads “high polyreactivity”.
As to “QVQLVESGGGLVQAGGSLRLSCAASGSTFVGYAMGWYRQAPGKERELVAHISYSGGSTYYADSVKGRFTISCDNAKNTVYLQMNSLKPEDTAVYYCAAEWSRHYYYAPRYDYWGQGTQVTVSS”, the “polyreactivity (PSR sort gate)” value was “low polyreactivity”.
With “QVQLVESGGGLVQAGGSLRLSCAASGSTFVGYAMRGYRQAPGKERELVADIDSIGGSTYYADSVKGRFTISRDNAKNTVYLQMNSLKPEDTAVYYCAARRFDTALVLYDYWGQGTQVTVSS”, the “polyreactivity (PSR sort gate)” value is “low polyreactivity”.
“QVQLVESGGGLVQAGGSLRLSCAASGSTFVHYAMGWYRQAPGKERELVAAITWSGGSTYYADSVKGRFTISRDNAKNTVYLPMNSLKPEDTAVYYCAARNFGAWRWYSYGAHLGSEYWGQGTQVTVSS”: the “polyreactivity (PSR sort gate)” value is reported as “low polyreactivity”.
“QVQLVESGGGLVQAGGSLRLSCAASGSTFVINAMGWYRQAPGKERELVADIDYRGGSTNYADSVKGRFTISRDNAKNTVYLQMNSLKPEDTAVYYCNKRYVIRRRGYDYWGQGTQVTVSS”: the “polyreactivity (PSR sort gate)” value is listed as “low polyreactivity”.
Take “QVQLVESGGGLVQAGGSLRLSCAASGSTFVIYAMGWYRQAPGKERELVAAITISGGRTYYADSVKGRFTISRDKAKNTVYLQMNSLKPEDTAVYYCAATVVSTYPYGYGSSFVRDDYWGQGTQVTVSS”: the “polyreactivity (PSR sort gate)” value is recorded as “low polyreactivity”.
With “QVQLVESGGGLVQAGGSLRLSCAASGSTFVIYDMGWYRQAPGKERELVAAISYSGGSTYYADSVKGRFTISRDNAKNTVYLQMNSLKPEDTAVYYCNAGVLVLLYAYLPSEQEYWGQGTQVTVSS”, the “polyreactivity (PSR sort gate)” value is listed as “low polyreactivity”.
To “QVQLVESGGGLVQAGGSLRLSCAASGSTFVIYTMGWYRQAPVKERELVAAISWSGGITRYADSVKGRFTISRDNAKNTVYLQMNSLKPEDTAVYYCNASQWPSRFDYWGQGTQVTVSS” belongs “low polyreactivity”; to “QVQLVESGGGLVQAGGSLRLSCAASGSTFVKYAMGWYRQAPGKERELVARISSSGGSTYYADSVKGRFTISRDNAKNTVYLQMNSLKPEDTAVYYCAAPSLIAKYDYWGQGTQVTVSS”, “high polyreactivity”; to “QVQLVESGGGLVQAGGSLRLSCAASGSTFVLNAMGWYRQAPGKERELVAAINLDSGNTNYADSVKGRFTISRDNAKYTVYLQMNSLKPEDTAVYYCNTDVKFGGTAYDYWGQGTQVTVSS”, “low polyreactivity”.
Take “QVQLVESGGGLVQAGGSLRLSCAASGSTFVLNAMGWYRQSPGKERQLVAGISYGTGSTYYADSVKGRITISRDNAKNTVYLQMNSLKPEDTAVYFCAADNWAVNAYYWYIYDYWGQGTQVTVSS”: the “polyreactivity (PSR sort gate)” value is “low polyreactivity”.
As for “QVQLVESGGGLVQAGGSLRLSCAASGSTFVNNAMGWYIQAPGKERELVAAIRSSDGRTYYADSVKGRFTISRDNAKNTVYLQMNSLKPEDTAVYYCATAVGTKYRTRIFEYYYWGQGTQVTVSS”, the “polyreactivity (PSR sort gate)” value was “high polyreactivity”.
The result for “QVQLVESGGGLVQAGGSLRLSCAASGSTFVNYAMVWYRQAPGKERELVAAITRGGYTYYADSVKGRFTISRDNAKNTVYLEMNSLKPEDTAFYYCNAAVSYPKYPYVSPGVPSYDYWGQGTQVSVSS” reads “low polyreactivity”.
Turning to “QVQLVESGGGLVQAGGSLRLSCAASGSTFVPYAMGWYRPAPGKERELVAGITFSGGSTYYADSVKGRFTISRDNAKNTVYLQMNSLKPEDTAVYYCAAGGWRGHYYWGQGTQVTVSS”, the “polyreactivity (PSR sort gate)” value is “high polyreactivity”.
“QVQLVESGGGLVQAGGSLRLSCAASGSTFVPYTMGWYRQAPGKERELVAAISGSGGTDYADSVKGRFTISRDNAKNTVYLQMNSLKPEDTAVYYCATDGLDFWFIYDYWGQGTQVTVSS”: the “polyreactivity (PSR sort gate)” value is reported as “low polyreactivity”.
As for “QVQLVESGGGLVQAGGSLRLSCAASGSTFVPYTMGWYRQAPGKERELVAVITSGGSTNYADSVKGRFTISRDNAKNTVYLQMNSLKPEDTAVYYCAAYGGTHYTYRYDYWGQGTQVTVSS”, the “polyreactivity (PSR sort gate)” value was “high polyreactivity”.
